The text below walks through data of patent publication US20030236190A1 (published 2003).

In experiment [1] the target is T1, human insulin receptor (HIR) (human, UniProt P06213 28-1382, limits assumed). In words: cell-based or functional assay.
In experiment [2] the target is insulin receptor (IR) on mouse free fat cells (mouse, UniProt P15208 28-1372). In words: cell-based or functional assay.
Experiment [3] concerns the target T1, human insulin receptor (HIR). Briefly: 125I-insulin competition, solubilised HIR.
Experiment [4] concerns the target T2, Human insulin receptor (HIR), purified from transfected cells after solubilization with Triton X-100 (human, UniProt P06213 28-1382, limits assumed).
T2 construct: Detergent-solubilised receptor
In words: competition with 125I-insulin for solubilised HIR, PEG precipitation; Kd calculated from the competition curve.

The target in experiment [5] is T2, Human insulin receptor (HIR), purified …. The experiment is described as above. The source holds these as a separate data set.
In experiment [6] the target is human IGF-1R on FDCP-2 cells (human, UniProt P08069 31-1367). Briefly: cell-based or functional assay.
In experiment [7] the target is human IGF-1 receptor (HIGF-1R) (human, UniProt P08069 31-1367). In words: 125I-IGF-1 competition, solubilised HIGF-1R.
Experiment [8] concerns the target T2, Human insulin receptor (HIR), purified …. Briefly: competition with 125I-insulin for solubilised HIR, PEG precipitation; Kd calculated from the competition curve. The source holds these as a separate data set.
Experiment [9] has as its target T3, soluble HIR ectodomain (sIR) (human, UniProt P06213-2 28-944, limits assumed).
T3 construct: extracellular domain
In words: FP competition vs FITC-RP9, sIR. The text has this: Fluorescence polarization assays (FP) were used for peptide competition studies.

In experiment [10] the target is T4, soluble human insulin receptor-immunoglobulin heavy chain chimera (sIR-Fc) (human, UniProt P06213 28-956, limits assumed, Eu3+ label (LANCE) in the TR-FRET assays).
T4 construct: extracellular domain; construct of Bass et al., 1996; also called HIR-immunoglobulin heavy chain chimera; not shown: immunoglobulin heavy chain constant domains
Briefly: FP competition vs FITC-RP9, sIR-Fc.

For experiment [11], the target named is T1, human insulin receptor (HIR). In words: RRA, 125I-insulin competition, HIR.
Experiment [12] addresses T4, soluble human insulin …. In words: TR-FRET competition vs b-RP9, sIR-Fc. From the text:
Time-resolved fluorescence resonance energy transfer assays (TR-FRET) were used for peptide competition studies.
This was used to determine IC₅₀ values.
A general note: In TR-FRET formats the signal depends on donor and acceptor labels being close together.

The target of experiment [13] is T4, soluble human insulin …. In words: TR-FRET competition vs b-S175, sIR-Fc. The protocol: (§1) The TR-FRET assays were performed in a 384-well white microplate with a final volume of 30 μl.
Experiment [14] deals with T4, soluble human insulin …. Briefly: TR-FRET competition vs b-S175, sIR-Fc (column as given). The protocol:
as §1

Experiment [15] deals with T5, human insulin receptor (HIR), purified from transfected cells after solubilization with Triton X-100 (human, UniProt P06213 28-1382, limits assumed).
T5 construct: also called WGA-purified recombinant human insulin receptor
In words: 125I-insulin competition on HIR.

Like-named read-outs stand apart in the source and are kept apart here. Positions of bridges follow the written chain, without caps; N, C: chain ends. No end group written: not given here.

Chain of insulin receptor (IR) on mouse free fat cells (P15208 28-1372): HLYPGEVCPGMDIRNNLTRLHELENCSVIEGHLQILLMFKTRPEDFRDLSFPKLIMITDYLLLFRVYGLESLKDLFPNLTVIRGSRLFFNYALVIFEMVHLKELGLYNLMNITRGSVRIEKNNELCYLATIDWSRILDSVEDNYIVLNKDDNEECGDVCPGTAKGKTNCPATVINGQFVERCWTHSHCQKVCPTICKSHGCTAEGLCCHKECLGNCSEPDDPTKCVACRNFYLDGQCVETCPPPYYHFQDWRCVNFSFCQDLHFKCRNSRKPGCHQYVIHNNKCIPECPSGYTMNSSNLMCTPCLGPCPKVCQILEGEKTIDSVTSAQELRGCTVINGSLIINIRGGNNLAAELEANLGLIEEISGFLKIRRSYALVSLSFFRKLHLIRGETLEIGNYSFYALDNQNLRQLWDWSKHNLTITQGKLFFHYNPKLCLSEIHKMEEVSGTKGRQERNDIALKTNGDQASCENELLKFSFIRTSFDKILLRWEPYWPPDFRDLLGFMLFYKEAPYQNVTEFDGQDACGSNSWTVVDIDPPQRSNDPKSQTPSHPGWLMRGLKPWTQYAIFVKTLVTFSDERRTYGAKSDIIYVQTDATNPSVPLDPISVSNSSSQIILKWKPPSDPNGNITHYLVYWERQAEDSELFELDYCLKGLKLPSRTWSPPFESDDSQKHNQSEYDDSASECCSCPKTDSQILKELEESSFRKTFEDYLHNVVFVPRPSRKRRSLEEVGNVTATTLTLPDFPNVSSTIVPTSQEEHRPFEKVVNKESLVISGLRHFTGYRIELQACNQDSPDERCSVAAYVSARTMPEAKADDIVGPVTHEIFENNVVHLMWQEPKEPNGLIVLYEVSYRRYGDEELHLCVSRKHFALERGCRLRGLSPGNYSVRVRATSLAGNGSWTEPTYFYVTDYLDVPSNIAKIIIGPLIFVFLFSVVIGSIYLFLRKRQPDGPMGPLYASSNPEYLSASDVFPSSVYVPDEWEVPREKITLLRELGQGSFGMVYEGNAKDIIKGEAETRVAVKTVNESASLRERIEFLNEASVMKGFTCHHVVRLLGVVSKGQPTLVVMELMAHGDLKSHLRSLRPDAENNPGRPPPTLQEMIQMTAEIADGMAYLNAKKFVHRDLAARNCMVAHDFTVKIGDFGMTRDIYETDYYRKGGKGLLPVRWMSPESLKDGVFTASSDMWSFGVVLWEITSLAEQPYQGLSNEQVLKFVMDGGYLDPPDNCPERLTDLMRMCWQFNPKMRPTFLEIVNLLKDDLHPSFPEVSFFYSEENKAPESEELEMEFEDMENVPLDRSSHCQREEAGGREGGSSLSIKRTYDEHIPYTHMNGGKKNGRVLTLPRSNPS

B1: 539 (peptide)
peptide: MADYKDDDDKWLDQEWAWVQCEVYGRGCPSGGSGGSGSLDESFYDWFERQLGKKAAAGAPVPYPDPLEPRPG
notes: recombinant dimer with tags at both ends; also called D8-6aa-RP9
As a reminder, the Kd is the concentration at which binding is half-saturated. As to B1, the “Kinase Pot.” value in [1] came out at 110 nM. In addition, in experiment [2], the “FFC Pot.” value was 10 nM. Binding in experiment [3] was characterised by a dissociation constant (Kd) of 0.53 nM.

B2: S371 (peptide)
peptide: GSLDESFYDWFERQLGKK
notes: Synthetic RP9 monomer peptide; also called RP9; S371 (RP9)
Turning to B2, the Kd in experiment [4] and in [5] was 630 nM in each case.

B3: 535 (peptide)
peptide: MADYKDDDDKGSLDESFYDWFERQLGKKGGSGGSGGSGGSGSLDESFYDWFERQLGKKAAAGAPVPYPDPLEPRPG
For the molecule B3, the “Kinase Pot.” value in experiment [1] worked out at 1000 nM. Besides, the “FFC Pot.” value in experiment [2] stood at 2 nM.

B4: 521 (peptide)
peptide: MADYKDDDDKGSLDESFYDWFERQLGKKGGSGGSGSLDESFYDWFERQLGKKAAAGAPVPYPDPLEPRPG
notes: recombinant dimer with tags at both ends (FLAG, E-Tag); also called RP9-6aa-RP9
B4: the “Kinase Pot.” value in experiment [1] was found to be 1400 nM. In addition, the “FFC Pot.” value in experiment [2] is 3 nM. In experiment [3], this molecule registered a Kd of 25 nM.

DYKDFYDAIDQLVRGSARAGGTRD [20E2]: in experiment [6], the “IGF-1 agonist (proliferation) assay, FDCP-2 cells; ED50” value (“IGF-1 agonist (proliferation) assay” for short) is over 10000 nM.

For WLDQERAWLWCEISGRGCLS (disulfide 11-18 (inferred)) [D815], in experiment [6], the “IGF-1 agonist (proliferation) assay” value was about 2000 nM.

B5: 537 (peptide)
peptide: MADYKDDDDKGSLDESFYDWFERQLGKKGGSGGSWLDQEWAWVQCEVYGRGCPSAAAGAPVPYPDPLEPRPG
notes: recombinant dimer with tags at both ends; also called RP9-6aa-D8
For the molecule B5, in experiment [2], the “FFC Pot.” value was 10 nM. Further, the Kd turned out to be 0.092 nM in experiment [3] and 980 nM in [7].

Consider ESFYDWFERQ (Synthetic truncated RP9 monomer peptide) [S400], for which the Kd in experiment [8] and in experiment [5] was 630 nM throughout.

Usually IC50 stands for the midpoint of a concentration-inhibition curve. Read a high IC50 as lower potency. Turning to FHENFYDWFVQRVSKK (also called D117) [H2C], the IC50 was found to be 37 nM in experiment [9]; 50 nM in [10]; 700 nM in experiment [11]; 1630 nM in experiment [12]; 410 nM in [13].

Turning to EEDWLQRNANFYDWFVAELX (C-terminal Lig'; copies joined C-C by chemical linker 9, also called (EE-short-S175-Lig)2-9) [S380], the IC50 was 0.5 nM in experiment [9] and 10 nM in [13].

With GGTVWPGYEWLRNA [E8 (D120)], the figures for the IC50 in [10], in [11] and in experiment [14] were 207 nM, 2200 nM and 755 nM, respectively.

B6: S374: 17-(Ald-GSLDESFYDWFERQLGKK)2 (peptide)
peptide: XGSLDESFYDWFERQLGKK
modifications: N-terminal Ald (aldehyde from periodate oxidation of a serine); the two chains joined N-N through chemical linker 17 of Table 3
notes: also called synthetic RP9 homodimer S374
On to B6, for which, in [15], the binding result is listed as “binds”.

Regarding ESFYDWFERQL (Synthetic truncated RP9 monomer peptide) [S399], the Kd in [8] and in [5] was 91 nM throughout.

GIISQSCPESFYDWFAGQVSDPWWCW [G33]: in experiment [6], the “IGF-1 agonist (proliferation) assay” value was about 10000 nM.

With GSLDESFYDWFERQ (Synthetic truncated RP9 monomer peptide) [S394], the Kd in [8] and in [5] was 81 nM in each case.

B7: S374 (peptide)
peptide: XGSLDESFYDWFERQLGKK
chain: XGSLDESFYDWFERQLGKK
modifications: not fully specified; the two chains are joined N-terminus to N-terminus through chemical linker 17 of Table 3 (Table 7 prints an N-terminal Ald group on each chain)
notes: Synthetic RP9 homodimer (Site 1-Site 1, N-N)
As for B7, in experiment [4], the Kd was 180 nM.

B8: 538 (peptide)
peptide: MADYKDDDDKGSLDESFYDWFERQLGKKGGSGGSGGSGGSWLDQEWAWVQCEVYGRGCPSAAAGAPVPYPDPLEPRPG
notes: recombinant dimer with tags at both ends; also called RP9-12aa-D8
For B8, the “FFC Pot.” value in experiment [2] turned out to be 10 nM. Further, the Kd was determined as 0.08 nM in [3] and 710 nM in experiment [7].

B9: RP9 (peptide)
peptide: GSLDESFYDWFERQLGKK
modifications: also: biotin (b-RP9) or fluorescein (FITC-RP9) label where used, site not given here
notes: also called S371; b-RP9
For the molecule B9, the IC50 in experiment [9] amounted to 0.03 nM; in [10], 10 nM; in experiment [11], 44 nM; in experiment [12], 42 nM; in experiment [13] it was 6 nM.
